Numbering of substitutions follows the chain as printed.
T1: Human PTK7 Protein, His Tag, Acro Biosystems (human, UniProt Q13308 31-704)
T1 construct: Bought protein; also called CCK4; not shown: His tag
T1 sequence: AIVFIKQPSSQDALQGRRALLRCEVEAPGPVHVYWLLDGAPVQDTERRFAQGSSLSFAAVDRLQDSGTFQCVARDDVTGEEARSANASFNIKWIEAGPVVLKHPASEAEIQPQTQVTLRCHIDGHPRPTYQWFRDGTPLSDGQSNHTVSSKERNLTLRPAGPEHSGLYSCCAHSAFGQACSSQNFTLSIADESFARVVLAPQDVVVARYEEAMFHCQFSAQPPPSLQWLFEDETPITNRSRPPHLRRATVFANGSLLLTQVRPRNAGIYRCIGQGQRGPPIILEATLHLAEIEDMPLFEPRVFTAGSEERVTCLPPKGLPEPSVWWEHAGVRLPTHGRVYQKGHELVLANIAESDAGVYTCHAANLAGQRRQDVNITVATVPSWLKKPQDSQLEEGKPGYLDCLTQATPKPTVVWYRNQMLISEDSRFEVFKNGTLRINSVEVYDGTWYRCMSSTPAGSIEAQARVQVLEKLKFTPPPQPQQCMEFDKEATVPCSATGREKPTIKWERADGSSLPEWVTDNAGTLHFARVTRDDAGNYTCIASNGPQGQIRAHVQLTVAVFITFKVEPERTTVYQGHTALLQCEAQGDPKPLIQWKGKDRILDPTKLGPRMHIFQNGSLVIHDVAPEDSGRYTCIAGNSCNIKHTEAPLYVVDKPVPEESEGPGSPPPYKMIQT

T2: Human PTK7 Protein, His Tag (Acro Biosystems) (human, UniProt Q13308 31-704)
T2 construct: Bought recombinant protein; also called CCK4; tyrosine-protein kinase-like 7; not shown: His tag
T2 sequence: T1 sequence

B1: MYT11188 (antibody, V domains shown)
VH: EVQLVESGGGLVQPGGSLRLSCTASGIDLSSYVHGWVRQAPGKGLEWVGYIYGGGGTYYATWARGRFTISRDTSKNTVYLQMNSLRAEDTAVYFCARAAADFYFNLWGQGTLVTVSS
VL: EIVMTQSPSTLSASVGDRVIITCQASQSISSYLAWYQQKPGKAPKLLIYDISDLASGVPSRFSGSGSGAEFTLTISSLQPDDFATYYCQSYYWISNSGAAFGQGTKLTVL
notes: HC variant of MYT9460, sub at HCV pos 34 (H1 09)
B2: MYT11235 (antibody, V domains shown)
VH: B1 VH with H34M
VL: B1 VL with L54H
notes: LC variant of MYT9460, sub at LCV pos 54 (L2 05)
B3: MYT11237 (antibody, V domains shown)
VH: B1 VH with H34M
VL: B1 VL with S56H
notes: LC variant of MYT9460, sub at LCV pos 56 (L2 07)
B4: MYT11215 (antibody, V domains shown)
VH: B1 VH with H34M, N105H
VL: B1 VL
B5: MYT11228 (antibody, V domains shown)
VH: B1 VH with H34M
VL: B1 VL with Y32H
notes: LC variant of MYT9460, sub at LCV pos 32 (L1 09)
B6: MYT11241 (antibody, V domains shown)
VH: B1 VH with H34M
VL: B1 VL with Y92H
notes: LC variant of MYT9460, sub at LCV pos 92 (L3 04)
B7: MYT11220 (antibody, V domains shown)
VH: B1 VH with H34M
VL: B1 VL with Q24H
notes: LC variant of MYT9460, sub at LCV pos 24 (L1 01)
B8: MYT11226 (antibody, V domains shown)
VH: B1 VH with H34M
VL: B1 VL with S30H
notes: LC variant of MYT9460, sub at LCV pos 30 (L1 07)
B9: MYT11234 (antibody, V domains shown)
VH: B1 VH with H34M
VL: B1 VL with D53H
notes: LC variant of MYT9460, sub at LCV pos 53 (L2 04)
B10: MYT11207 (antibody, V domains shown)
VH: B1 VH with H34M, R97H
VL: B1 VL
notes: HC variant of MYT9460, sub at HCV pos 97 (H3 02)
B11: MYT11205 (antibody, V domains shown)
VH: B1 VH with H34M, G65H
VL: B1 VL
notes: HC variant of MYT9460, sub at HCV pos 65 (H2 16)
B12: MYT11227 (antibody, V domains shown)
VH: B1 VH with H34M
VL: B1 VL with S31H
notes: LC variant of MYT9460, sub at LCV pos 31 (L1 08)
B13: MYT11200 (antibody, V domains shown)
VH: B1 VH with H34M, A60H
VL: B1 VL
notes: HC variant of MYT9460, sub at HCV pos 60 (H2 11)
B14: MYT11242 (antibody, V domains shown)
VH: B1 VH with H34M
VL: B1 VL with W93H
notes: LC variant of MYT9460, sub at LCV pos 93 (L3 05)
B15: MYT11219 (antibody, V domains shown)
VH: B1 VH with H34M, D101A
VL: B1 VL
notes: HC variant of MYT9460, printed as H3 05 with HCV pos 101, new residue not marked
B16: MYT11201 (antibody, V domains shown)
VH: B1 VH with H34M, T61H
VL: B1 VL
notes: HC variant of MYT9460, sub at HCV pos 61 (H2 12)
B17: MYT11252 (antibody, V domains shown)
VH: B1 VH with H34M
VL: B1 VL with D53A
notes: LC variant of MYT9460, Ala sub at LCV pos 53 (L2 04)
B18: MYT11199 (antibody, V domains shown)
VH: B1 VH with H34M, Y59H
VL: B1 VL
notes: HC variant of MYT9460, sub at HCV pos 59 (H2 10)
B19: MYT11251 (antibody, V domains shown)
VH: B1 VH with H34M
VL: B1 VL with D50A
notes: LC variant of MYT9460, Ala sub at LCV pos 50 (L2 01)
B20: MYT11233 (antibody, V domains shown)
VH: B1 VH with H34M
VL: B1 VL with S52H
notes: LC variant of MYT9460, sub at LCV pos 52 (L2 03)
B21: MYT11239 (antibody, V domains shown)
VH: B1 VH with H34M
VL: B1 VL with S90H
notes: LC variant of MYT9460, sub at LCV pos 90 (L3 02)
B22: MYT11209 (antibody, V domains shown)
VH: B1 VH with H34M, A99H
VL: B1 VL
notes: HC variant of MYT9460, sub at HCV pos 99 (H3 04)
B23: MYT11202 (antibody, V domains shown)
VH: B1 VH with H34M, W62H
VL: B1 VL
notes: HC variant of MYT9460, sub at HCV pos 62 (H2 13)
B24: MYT11206 (antibody, V domains shown)
VH: B1 VH with H34M, A96H
VL: B1 VL
notes: HC variant of MYT9460, sub at HCV pos 96 (H3 01)
B25: MYT11203 (antibody, V domains shown)
VH: B1 VH with H34M, A63H
VL: B1 VL
notes: HC variant of MYT9460, sub at HCV pos 63 (H2 14)
B26: MYT11223 (antibody, V domains shown)
VH: B1 VH with H34M
VL: B1 VL with Q27H
notes: LC variant of MYT9460, sub at LCV pos 27 (L1 04)
B27: MYT11214 (antibody, V domains shown)
VH: B1 VH with H34M, F104H
VL: B1 VL
notes: HC variant of MYT9460, sub at HCV pos 104 (H3 09)
B28: MYT11208 (antibody, V domains shown)
VH: B1 VH with H34M, A98H
VL: B1 VL
notes: HC variant of MYT9460, sub at HCV pos 98 (H3 03)
B29: MYT11198 (antibody, V domains shown)
VH: B1 VH with H34M, Y58H
VL: B1 VL
notes: HC variant of MYT9460, sub at HCV pos 58 (H2 09)
B30: MYT11231 (antibody, V domains shown)
VH: B1 VH with H34M
VL: B1 VL with D50H
notes: LC variant of MYT9460, sub at LCV pos 50 (L2 01)
B31: MYT11217 (antibody, V domains shown)
VH: B1 VH with H34M, F94Y
VL: B1 VL
B32: MYT11216 (antibody, V domains shown)
VH: B1 VH with H34M, L106H
VL: B1 VL
B33: MYT11218 (antibody, V domains shown)
VH: B1 VH with D28A, H34M
VL: B1 VL
notes: HC variant of MYT9460, sub at HCV pos 28 (H1 03), second variant at this position, new residue not marked
B34: MYT11341 (antibody, V domains shown)
VH: EVQLVESGGGLVQPGGSLRLSCTASGIHLSNYAVIWVRQAPGKGLEWVGIIYTYDTTYYANWAKGRFTISRDTSKNTVYLQMNSLRAEDTAVYFCARSFSDISDLIKLWGQGTLVTVSS
VL: EIVMTQSPSTLSASVGDRVIITCQASQSLYNNKDLAWYQQKPGKAPKLLIYEASKLASGVPSRFSGSGSGAEFTLTISSLQPDDFATYYCLGEFSCGSGDCLAFGQGTKLTVL
notes: MYT9797 HC variant; captured via anti-human Fc
B35: MYT11339 (antibody, V domains shown)
VH: B34 VH with G26H, H28D
VL: B34 VL
notes: as for B34
B36: MYT11343 (antibody, V domains shown)
VH: B34 VH with H28D, S30H
VL: B34 VL
notes: as for B34
B37: MYT11342 (antibody, V domains shown)
VH: B34 VH with H28D, L29H
VL: B34 VL
notes: as for B34
B38: MYT11344 (antibody, V domains shown)
VH: B34 VH with H28D, N31H
VL: B34 VL
notes: as for B34
B39: MYT11340 (antibody, V domains shown)
VH: B34 VH with I27H, H28D
VL: B34 VL
notes: as for B34

What was measured:
[1] = biological target: T1, Human PTK7 Protein, His Tag, Acro …; test: BLI (Octet), antibody on anti-human Fc sensor, 50 nM PTK7, dissociation at pH 7.4 or 5.4; 2 = substantially similar binding relative to parent
[2] = biological target: T2, Human PTK7 Protein, His Tag (Acro …); test: BLI, antibody on anti-human Fc sensor, 50 nM PTK7 at pH 7.4, dissociation at pH 7.4 or 5.4; 2 = substantially similar binding relative to parent

Binder | binding result [1] | binding result [2]
B1 | binds | –
B2 | binds | –
B3 | binds | –
B4 | binds | –
B5 | binds | –
B6 | binds | –
B7 | binds | –
B8 | binds | –
B9 | binds | –
B10 | binds | –
B11 | binds | –
B12 | binds | –
B13 | binds | –
B14 | binds | –
B15 | binds | –
B16 | binds | –
B17 | binds | –
B18 | binds | –
B19 | binds | –
B20 | binds | –

Binder | binding result [1] | binding result [2]
B21 | binds | –
B22 | binds | –
B23 | binds | –
B24 | binds | –
B25 | binds | –
B26 | binds | –
B27 | binds | –
B28 | binds | –
B29 | binds | –
B30 | binds | –
B31 | binds | –
B32 | binds | –
B33 | binds | –
B34 | – | binds
B35 | – | binds
B36 | – | binds
B37 | – | binds
B38 | – | binds
B39 | – | binds
